# In the supplement of paper PMC7877785:
# ± gives the uncertainty stated by the source.
# Experiment: self-splicing fitness, log relative to wild type (ln ratio); higher = more splicing; Tetrahymena group I intron in knt gene, E. coli kanamycin selection, DiMSum; sequences stand for … in CUCUCU…GGAGGGAAAAGUUAUCAGGCAUGCACCUGGUAGCUAGUCUUUAAACCAAUAGAUUGCAUCGGUUUAAAAGGCAAGACCGUCAAAUUGCGGGAAAGGGGUCAACAGCCGUUCAGUACCAAGUCUCAGGGGAAACUUUGAGAUGGCCUUGCAAAGGGUAUGGUAAUAAGCUGACGGACAUGGUCCUAACCACGCAGCCAAGUCCUAAGUCAACAGAUCUUCUGUUGAUAUGGAUGCAGUUCACAGACUAAAUGUCGGUCGGGGAAGAUGUAUUCUUCUCAUAAGAUAUAGUCGGACCUCUCCUUAAUGGGAGCUAGCGGAUGAAGUGAUGCAACACUGGAGCCGCUGGGAACUAAUUUGUAUGCGAAAGUAUAUUGAUUAGUUUUGGAGUACUCGUGGUCG
# Procedure, shortened: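 The eight P1ex-region nucleotides of an intron in the knt kanamycin-resistance gene on pET-22b(+) were all randomised and the library put into E. coli BL21(DE3). Six replicate transformations were grown overnight at 37°C or 30°C on LB agar with or without 25 μg/mL kanamycin, together with 100 μg/mL carbenicillin, 50 μM IPTG and 0.2% rhamnose. Colonies were pooled and amplicon-sequenced on an Illumina HiSeq 2500. Fitness from DiMSum is the error-weighted combination of wild-type-normalised replicate fold changes, kanamycin over none.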
Sequence,self-splicing fitness (ln) (30 °C),self-splicing fitness (ln) (37 °C)
AUUCAGCAAUAUUACGCAGA,-2.28 ± 0.21,-0.845 ± 0.12
AUUCAGCAAUAUUACGCAUC,-2.75 ± 0.16,-0.806 ± 0.16
AUUCAGCAAUAUUACGCCCU,0.164 ± 0.13,0.287 ± 0.21
AUUCAGCAAUAUUACGCGCC,-1.17 ± 0.15,0.194 ± 0.21
AUUCAGCAAUAUUACGCGUU,-0.912 ± 0.07,-0.348 ± 0.081
AUUCAGCAAUAUUACGGAGG,-2.29 ± 0.13,-1.13 ± 0.13
AUUCAGCAAUAUUACGGCCA,-0.32 ± 0.21,-0.225 ± 0.21
AUUCAGCAAUAUUACGGCGA,-0.392 ± 0.078,-0.501 ± 0.084
AUUCAGCAAUAUUACGGCGU,0.256 ± 0.057,0.488 ± 0.074
AUUCAGCAAUAUUACGGGCU,-2.2 ± 0.12,-1.38 ± 0.12
AUUCAGCAAUAUUACGGGUU,-2.8 ± 0.17,-1.75 ± 0.16
AUUCAGCAAUAUUACGUACA,-0.718 ± 0.095,0.309 ± 0.11
AUUCAGCAAUAUUACGUCAG,-2.51 ± 0.15,-1.67 ± 0.22
AUUCAGCAAUAUUACGUGAC,-3.05 ± 0.44,-1.84 ± 0.35
AUUCAGCAAUAUUACGUGUC,-4.2 ± 0.22,-2.02 ± 0.2
AUUCAGCAAUAUUACGUUCA,-1.07 ± 0.12,-0.606 ± 0.13
AUUCAGCAAUAUUACGUUGA,-2.64 ± 0.1,-1.34 ± 0.093
AUUCAGCAAUAUUACGUUGG,-2.45 ± 0.12,-1.94 ± 0.13
AUUCAGCAAUAUUACGUUUG,-2.76 ± 0.094,-1.54 ± 0.1
AUUGAGCAAUAUUACGAACG,-2.34 ± 0.18,-0.91 ± 0.3

Sequence,self-splicing fitness (ln) (30 °C),self-splicing fitness (ln) (37 °C)
AUUGAGCAAUAUUACGAGAG,–,-2.66 ± 0.29
AUUGAGCAAUAUUACGAUCC,-1.32 ± 0.4,–
AUUGAGCAAUAUUACGCAGG,-3.68 ± 0.29,-2.72 ± 0.27
AUUGAGCAAUAUUACGCCUG,-2.27 ± 0.33,–
AUUGAGCAAUAUUACGCGAG,-1.83 ± 0.13,-0.958 ± 0.14
AUUGAGCAAUAUUACGCGGC,-3.26 ± 0.38,–
AUUGAGCAAUAUUACGCUAU,-3.5 ± 0.44,-2.12 ± 0.42
AUUGAGCAAUAUUACGCUUU,-2.92 ± 0.24,-1.29 ± 0.26
AUUGAGCAAUAUUACGGACC,-3.26 ± 0.48,–
AUUGAGCAAUAUUACGGUCU,-2.72 ± 0.15,-2.56 ± 0.25
AUUGAGCAAUAUUACGGUUA,-3.06 ± 0.29,-2.57 ± 0.22
AUUGAGCAAUAUUACGUACC,–,-1.17 ± 0.46
AUUGAGCAAUAUUACGUCUU,-1.39 ± 0.12,-0.607 ± 0.14
AUUGAGCAAUAUUACGUGUG,-2.38 ± 0.11,-2.41 ± 0.16
AUUGAGCAAUAUUACGUUUA,-2.83 ± 0.19,-2.98 ± 0.27
AUUUAGCAAUAUUACGAACC,-2.12 ± 0.19,-0.169 ± 0.21
AUUUAGCAAUAUUACGACCA,-0.901 ± 0.19,-0.373 ± 0.23
AUUUAGCAAUAUUACGAGGU,-3.21 ± 0.39,-1.91 ± 0.42
AUUUAGCAAUAUUACGCACU,0.177 ± 0.13,0.474 ± 0.16
